B1: library; numbered along this chain (parent)
chain: MATDAALRRLLRLHRTEIAVAVDSAFPLLHALADHDVVPEDKFQETLHLKEKEGCPQAFHALLSWLLTQDSTAILDFWRVLFKDYNLERYGRLQPILDSFPKDVDLSQPRKGRKPPAVPKALVPPPRLPTKRKASEEARAAAPAALTPRGTASPGSQLKAKPPKKPESSAEQQRLPLGNGIQTMSASVQRAVAMSSGDVPGARGAVEGILIQQVFESGGSKKCIQVGGEFYTPSKFEDSGSGKNKARSSSGPKPLVRAKGAQGAAPGGGEARLGQQGSVPAPLALPSDPQLHQKNEDECAVCRDGGELICCDGCPRAFHLACLSPPLREIPSGTWRCSSCLQATVQEVQPRAEEPRPQEPPVETPLPPGLRSAGEEVRGPPGEPLAGMDTTLVYKHLPAPPSAAPLPGLDSSALHPLLCVGPEGQQNLAPGARCGVCGDGTDVLRCTHCAAAFHWRCHFPAGTSRPGTGLRCRSCSGDVTPAPVEGVLAPSPARLAPGPAKDDTASHEPALHRDDLESLLSEHTFDGILQWAIQSMARPAAPFPS

Variants of: B1
Assay: AIRE transcriptional activation functional score (insulin promoter-GFP; nonsense median 0, synonymous median 1) (normalised score); higher = higher AIRE activity (more reporter activation)
Settings: with insulin promoter-GFP reporter in HEK293
Method in brief: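 Functional scores come from comparing select with non-select enrichment of each variant and subtracting wild type. Codon-optimized AIRE NNN-codon libraries across three regions were integrated via Bxb1 recombinase into HEK293 landing-pad cells with an insulin core promoter-GFP reporter, and integrants sorted at day 7 were expanded 7 days before top 10% GFP and unselected populations were tile-sequenced. Variants needed 10 counts per million in non-select, and values were rescaled to nonsense median 0 and synonymous median 1 before averaging over biological replicates.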

AIRE transcriptional activation functional score, by site and new letter:
Q358: M 1.12; N 1.18; P 1.05; R 1.17; S 1.04; T 0.929; V 1.07; W 1.27; Y 1.04
E359: A 0.785; C 1.11; D 0.954; F 1.18; G 1.02; H 0.97; I 1.14; K 0.82; L 1.01; M 1.08; N 0.928; P 0.935; Q 0.92; R 1.02; S 1.27; T 0.92; V 1.08; W 1.24; Y 1.11
P360: A 0.888; C 1.08; D 0.792; E 1.22; F 1.2; G 1.16; H 1.1; I 1.13; K 0.715; L 1.06; M 1.19; N 1; Q 0.786; R 1.02; S 0.994; T 0.775; V 0.911; W 1.38; Y 1.2
P361: A 1.01; C 1.27; D 1.15; E 0.976; F 1.18; G 1.21; H 1.14; I 1.09; K 1.12; L 1.07; M 1.3; N 0.778; Q 1.18; R 0.983; S 1.21; T 1.12; V 1.21; W 1.29; Y 1.13
V362: A 1.13; C 0.914; D 1.3; E 1.07; F 0.981; G 1.02; H 0.807; I 1.32; K 1.11; L 0.999; M -0.739; N 1.3; P 0.988; Q 1.16; R 1.14; S 1.07; T 0.915; W 1.24; Y 1.31
E363: A 1.1; C 1.27; D 0.917; F 1.34; G 1.02; H 1.19; I 1.02; K 1.09; L 1.29; M 1.7; N 1.09; P 0.843; Q 0.775; R 1.21; S 1.04; T 1.29; V 1.14; W 1.59; Y 1.28
T364: A 0.985; D 0.191; E 0.981; F 0.115; G 0.32; H 1.07; I 0.829; K 0.737; L 1.22; M 1.64; N 0.588; P 0.694; Q 0.914; R 0.983; S 0.643; V 0.952; W 1.73; Y 1.11
P365: A 1.05; C 1.05; D 0.214; E 1.33; F 1.36; G 0.47; H 0.594; I 0.733; K 1.17; L 1.07; M 1.49; N 0.389; Q 0.92; R 1.28; S 1.14; T 0.843; V 0.952; W 1.45; Y 1.75
L366: A 0.656; C 0.406; D 0.846; E 1.32; F 1.02; G 0.607; H 1.21; I 0.894; K 1.37; M 0.554; N 0.777; P 1.13; Q 0.884; R 1.1; S 0.837; T 1.17; V 0.996; W 1.29; Y 0.821
P367: A 0.781; C 1.47; D 0.924; E 1.46; F 1.13; G 0.153; I 1.46

Reference: the supplement of paper PMC12667976
